Laboratory results reported in patent publication EP1073891B1, “METHOD OF PREDICTING RECEPTOR MODULATING ACTIVITY” (Duke University, priority 1998, dated 1999).

Experiments:
Assay in all cases: Mammalian two-hybrid, specificity of peptide-nuclear receptor interaction (Example 4.2)
Format in all cases: cell-based
Conditions in all cases: mammalian two-hybrid (Fig. 8)
[1] = target: T1, estrogen receptor beta (ERβ-VP16) (Homo sapiens, UniProt Q92731)
T1 construct: expressed in transfected cells
Text: (§1) Peptide sequences representing each class was fused to the DNA binding domain (DBD) of the yeast transcription factor Ga14. HepG2 cells were then transiently transfected with expression vectors for ERα-VP16 and the Gal4-peptide fusion proteins. In addition, a luciferase reporter construct under the control of 5 copies of a Ga14 upstream enhancer element was also transfected along with a pCMV-β galactosidase vector to normalize for transfection efficiency. Transfection of the Ga14 DBD alone is included as control. Cells were then induced with various ligands as indicated in the figure and assayed for luciferase activity and β galactosidase activity. Normalized response was obtained by dividing the luciferase activity by the β galactosidase activity.
(§2) The specificity of peptide-nuclear receptor interaction was analyzed (Fig. 8) using the mammalian two-hybrid system. Experimental design is the same as in figure 2 except that either progesterone receptor (PRB-VP16), estrogen receptor beta (ERβ-VP16), glucocorticoid receptor (GR-VP16) or thyroid receptor beta (TRβ-VP16) was tested.

[2] = target: T2, glucocorticoid receptor (GR-VP16) (Homo sapiens, UniProt P04150)
T2 construct: expressed in transfected cells
T2 sequence (P04150 1-777): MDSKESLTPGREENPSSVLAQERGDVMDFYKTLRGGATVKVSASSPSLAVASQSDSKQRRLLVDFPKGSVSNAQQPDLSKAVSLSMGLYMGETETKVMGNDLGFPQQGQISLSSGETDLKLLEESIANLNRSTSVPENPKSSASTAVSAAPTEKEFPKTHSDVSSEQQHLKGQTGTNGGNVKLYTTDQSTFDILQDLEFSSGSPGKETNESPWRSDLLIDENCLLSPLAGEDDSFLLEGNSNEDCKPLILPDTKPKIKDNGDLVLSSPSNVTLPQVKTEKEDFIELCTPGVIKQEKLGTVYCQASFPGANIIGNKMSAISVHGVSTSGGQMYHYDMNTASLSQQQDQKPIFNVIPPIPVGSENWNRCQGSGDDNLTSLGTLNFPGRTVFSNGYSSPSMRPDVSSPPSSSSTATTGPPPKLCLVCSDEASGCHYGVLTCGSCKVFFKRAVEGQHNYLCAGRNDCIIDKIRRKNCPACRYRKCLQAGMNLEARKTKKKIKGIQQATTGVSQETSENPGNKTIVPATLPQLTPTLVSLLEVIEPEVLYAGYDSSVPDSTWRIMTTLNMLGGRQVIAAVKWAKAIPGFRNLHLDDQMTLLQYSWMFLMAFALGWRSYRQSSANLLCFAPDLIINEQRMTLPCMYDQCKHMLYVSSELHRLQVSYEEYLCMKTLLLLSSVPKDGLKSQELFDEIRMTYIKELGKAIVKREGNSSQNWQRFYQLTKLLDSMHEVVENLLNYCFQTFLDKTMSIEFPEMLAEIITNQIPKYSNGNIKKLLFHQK
Text: as §1, §2

[3] = target: T3, progesterone receptor (PRB-VP16) (Homo sapiens, UniProt P06401)
T3 construct: expressed in transfected cells
T3 sequence (P06401 1-933): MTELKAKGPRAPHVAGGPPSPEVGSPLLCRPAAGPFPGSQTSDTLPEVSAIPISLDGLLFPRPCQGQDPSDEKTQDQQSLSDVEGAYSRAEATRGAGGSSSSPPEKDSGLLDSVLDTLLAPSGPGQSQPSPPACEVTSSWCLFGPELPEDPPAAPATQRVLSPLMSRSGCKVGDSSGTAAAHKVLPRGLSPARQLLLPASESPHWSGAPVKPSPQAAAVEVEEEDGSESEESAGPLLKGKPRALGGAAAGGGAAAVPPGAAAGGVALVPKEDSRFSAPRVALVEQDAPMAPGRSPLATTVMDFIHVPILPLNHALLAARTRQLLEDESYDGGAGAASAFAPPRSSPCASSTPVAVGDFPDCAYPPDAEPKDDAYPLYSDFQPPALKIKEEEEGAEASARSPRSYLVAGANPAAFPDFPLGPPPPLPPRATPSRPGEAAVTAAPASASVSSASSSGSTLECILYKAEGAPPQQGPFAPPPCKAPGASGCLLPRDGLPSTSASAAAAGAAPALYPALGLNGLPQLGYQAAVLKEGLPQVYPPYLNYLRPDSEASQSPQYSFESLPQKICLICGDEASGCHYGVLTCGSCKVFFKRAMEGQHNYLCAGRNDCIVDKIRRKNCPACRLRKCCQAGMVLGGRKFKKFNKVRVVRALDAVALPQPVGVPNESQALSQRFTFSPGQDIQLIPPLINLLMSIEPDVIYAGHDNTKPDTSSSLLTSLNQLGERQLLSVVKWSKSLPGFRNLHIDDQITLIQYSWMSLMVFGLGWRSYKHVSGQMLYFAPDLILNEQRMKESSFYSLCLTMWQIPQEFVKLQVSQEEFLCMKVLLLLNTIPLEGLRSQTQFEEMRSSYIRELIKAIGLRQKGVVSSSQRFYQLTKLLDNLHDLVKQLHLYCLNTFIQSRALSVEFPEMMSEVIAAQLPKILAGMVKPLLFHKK
Text: as §1, §2

[4] = target: T4, thyroid receptor beta (TRβ-VP16) (Homo sapiens, UniProt P10828)
T4 construct: expressed in transfected cells
T4 sequence (P10828 1-461): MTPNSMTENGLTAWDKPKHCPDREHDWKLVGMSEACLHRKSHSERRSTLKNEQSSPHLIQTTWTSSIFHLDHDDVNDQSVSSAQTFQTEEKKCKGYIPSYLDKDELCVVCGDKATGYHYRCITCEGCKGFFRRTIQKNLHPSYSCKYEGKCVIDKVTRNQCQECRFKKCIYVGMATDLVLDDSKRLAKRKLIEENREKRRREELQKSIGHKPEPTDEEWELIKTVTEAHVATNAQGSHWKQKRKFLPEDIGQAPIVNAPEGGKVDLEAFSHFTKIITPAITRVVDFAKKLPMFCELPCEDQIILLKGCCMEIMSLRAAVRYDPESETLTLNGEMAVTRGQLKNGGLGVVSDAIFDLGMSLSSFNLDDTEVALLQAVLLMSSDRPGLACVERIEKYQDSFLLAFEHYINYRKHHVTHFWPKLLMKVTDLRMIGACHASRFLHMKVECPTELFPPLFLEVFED
Text: as §1, §2

T1 sequence (Q92731 whole entry, species assumed): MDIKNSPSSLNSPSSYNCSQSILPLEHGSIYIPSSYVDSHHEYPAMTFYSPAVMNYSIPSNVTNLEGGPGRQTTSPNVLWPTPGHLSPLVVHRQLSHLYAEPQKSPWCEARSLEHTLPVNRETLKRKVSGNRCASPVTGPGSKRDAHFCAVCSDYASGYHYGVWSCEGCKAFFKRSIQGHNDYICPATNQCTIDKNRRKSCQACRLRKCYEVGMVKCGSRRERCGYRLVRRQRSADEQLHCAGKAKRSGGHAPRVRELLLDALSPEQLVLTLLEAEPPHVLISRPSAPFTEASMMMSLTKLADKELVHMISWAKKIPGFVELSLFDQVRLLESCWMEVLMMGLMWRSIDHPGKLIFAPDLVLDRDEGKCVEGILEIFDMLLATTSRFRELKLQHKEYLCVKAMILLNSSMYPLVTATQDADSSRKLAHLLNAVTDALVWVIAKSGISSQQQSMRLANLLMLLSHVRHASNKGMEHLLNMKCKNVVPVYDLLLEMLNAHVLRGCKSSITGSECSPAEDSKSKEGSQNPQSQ

Sequence | interaction with ERβ [1] | interaction with GR [2] | interaction with PRB [3] | interaction with TRβ [4]
SSWDMHQFFWEGVSR [α/β III] | None of the receptors tested interact significantly | None of the receptors tested interact significantly | None of the receptors tested interact significantly | None of the receptors tested interact significantly
SSNHQSSRLIELLSR [α/β I] | interact with the αβ I peptide in the presence of the appropriate agonist | interact with the αβ I peptide in the presence of the appropriate agonist | interact with the αβ I peptide in the presence of the appropriate agonist | interact with the αβ I peptide in the presence of the appropriate agonist
SSPGSREWFKDMLSR [α/β V] | bound ERβ only in the presence of tamoxifen |  | able to associate with PRB in the presence of the PR antagonists RU 486 and ZK 98299 | 
SSLTSRDFGSWYASR [α II] | None of the receptors tested interact significantly | None of the receptors tested interact significantly | None of the receptors tested interact significantly | None of the receptors tested interact significantly
